Results: US20230192839A1, “ANTIBODIES HAVING CONDITIONAL AFFINITY AND METHODS OF USE THEREOF” (PFIZER INC., priority 2017, published 2023)

Test system: human CD33
Assay: Biacore SPR binding kinetics of anti-CD33 scFv-Fc clones with or without 10 µM MTX
How it was run: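 Kinetics by SPR at 37° C in 10 mM Hepes pH 7.4, 150 mM NaCl, 0.05% Tween-20, with or without 10 µM MTX. Double-referenced data fit globally to Langmuir with mass transport; KD = koff/kon. Where binding was too weak for kinetics, KD or KD limit estimated from response at highest analyte concentration or instrument detection limit.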

[1] = CD33, 0 µM MTX, 37° C., pH 7.4, scFv-Fc

B1: P02_D09: anti-CD33 clone with conditional affinity; VH SEQ ID NO: 35, VL SEQ ID NO: 36; also as scFv in CAR (antibody, V domains shown)
VH: QVQLVESGGGLVQAGGSLRLSCAASRRSSRSWAMHWVRQAPGKGLEWVAVISYDGRLKYYADSVKGRFTISRDNAEYLVYLQMNSLRAEDTAVYYCAAEEGDGGFFDYWGQGTLVTVSS
VL: QSVLTQPPSASGTPGQRVTISCSGSSSNIGSNYVNWYQQLPGTAPKLLIYRNNERPSGVPDRFSGSKSGTSASLAISGLRSEDEADYYCAAWDGSLSGRGVFGTGTKLTVL
modifications: Synthetic Antibody
notes: also as scFv in CAR
affinity for CD33 in the presence of MTX as compared to absence (in words) (10 µM MTX vs 0 µM MTX): significantly greater affinity toward CD33 (i.e. lower KD) in the absence of MTX than in the presence of MTX | koff, kinetics toward antigen with 0 µM MTX [1]: 0.018 s⁻¹ | kon, kinetics toward antigen with 0 µM MTX [1]: 40000 M⁻¹ s⁻¹ | Kd (CD33, 10 µM MTX, 37° C., pH 7.4, koff/kon, or estimated from binding response / limit of detection for weak interactions, read-out: KD, kinetics toward antigen with 10 µM MTX): > 9.29 µM
